± gives the uncertainty stated by the source.
Test: amyloid nucleation score (Sup35N fusion, yeast selection) (log enrichment); library NNK2; higher = more nucleation; inactive = no reads after selection
Outline: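 The nucleation score is the log enrichment of output over input reads, calculated with DiMSum and centred on the mode score of non-aggregating sequences. Sequences with under 100 input reads were excluded. Reads came from Illumina sequencing of plasmid inserts from psi-negative yeast expressing Sup35N fused to peptides of 20 random codons, induced 24 hours with 100 μM copper sulfate and grown 7 days at 30°C without adenine and uracil.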

Substance | amyloid nucleation score
CRCLPKKGFHVLTVSRFRAS | inactive
CRGDRFSRSST | -0.217 ± 0.79
CRIFDTVSMLNSFYHGH | inactive
CRISVIFLYFSFFY | inactive
CRIVKRVRAADRRMWIMCLG | -0.256 ± 0.37
CRLRVDVGECDRGLYALRVW | 1.21 ± 0.48
CRMYRSRCNCMCDRVVEMWG | -0.407 ± 0.4
CRNRVDECSIWRD | -0.046 ± 1
CRPGRLYVQIIFISMIRDNR | -0.513 ± 0.48
CRRSNFNYQGVLGYWHRFAG | -0.755 ± 1.1
CRSKASSSIRIPT | 0.586 ± 0.81
CRTRL | 0.505 ± 0.39
CRVRVTFG | -0.481 ± 1.1
CSAITGY | 0.564 ± 0.23
CSCFWCRRRKNYKFLGGCGS | -1.25 ± 1.1
CSESFGCRTPPSLNMLVCN | -0.729 ± 1.1
CSGSLHERQYVRYDEVRRVG | -0.031 ± 0.55
CSIPCCVGHTLSLGRQFVFV | 0.13 ± 0.43
CSKLFSRGPGLAFFQFFI | inactive
CSLAFVHRAIFSMSLLHSET | 0.136 ± 0.4
CSLPCVTNWCRRRNMVSQPV | -1.11 ± 1.1
CSMMEPTMY | 0.269 ± 0.41
CSMMNLKSFLADCSIPAFTG | -0.962 ± 0.64
CSPVLKSSFNALARKRMLAR | 1.29 ± 0.35
CSQVALLNKLFLPG | -1.14 ± 0.38

Substance | amyloid nucleation score
CSVNNSSLCIVVVAWFCGLD | 0.711 ± 0.45
CSVRSSAIYIRSCHHGWFYC | -1.19 ± 1.1
CSYPNTLNCELMGILCYVGN | 6.47 ± 0.024
CSYSFDLTANICPISLNVVC | 5.001 ± 0.043
CSYVAGETSLERSHCILGWS | 0.161 ± 0.34
CTRSFVTQSDEDSPIGSDR | -1.39 ± 0.38
CTRVLW | -0.201 ± 0.32
CTTLLALHMWISCVIGWSR | 0.172 ± 0.39
CTTYPAFLSSGNPNFIMRFL | -0.148 ± 0.51
CVCLD | 0.1 ± 0.33
CVFNTFMNDKIIGRLWPTDW | 2.91 ± 0.15
CVGIFDNDICVEFMMALRLD | -1.05 ± 0.64
CVKQWRTIIVTLYLGTLPK | 4.21 ± 0.059
CVLDLNVMDGGLL | -1.26 ± 0.38
CVLDNGGTYNFRLRRMDHLI | -0.707 ± 0.79
CVLVFIVNKTYA | 4.13 ± 0.06
CVLYCVGFN | 6.483 ± 0.042
CVMALVYACRAAHTRPMAYS | inactive
CVMLMCRGDV | 3.87 ± 0.091
CVMMSQAFF | 5.22 ± 0.084
CVSADPFCPIEQFNVMILAL | -0.663 ± 0.42
CVSEDDCLDYPKV | 2.29 ± 0.13
CVVDLDPCNGDAGLSSYTIS | 0.594 ± 0.13
CWLAMN | -0.166 ± 0.8
CWNKEGRFTRVTMEHASRRA | 0.973 ± 0.48

Substance | amyloid nucleation score
CWRVNRFYVQSSYMGFVWSV | -0.73 ± 1.1
CYHFCYYVLSLVWGQNPVIK | 0.108 ± 0.65
CYSTLGLSG | 0.516 ± 0.81
DAEIMMCYCKFSGFGSITWR | 0.143 ± 0.5
DAKPVCIDGLFI | -0.839 ± 0.56
DAVMVWVGDV | 0.179 ± 0.17
DAVRQGTL | 0.102 ± 1.1
DAWFVINHHPIEYLSLRVWR | 0.98 ± 0.27
DAWKLNTDIYSANRYFIDLV | -0.651 ± 0.27
DAWSCRRLF | inactive
DCECGLNSWKKVT | inactive
DCLFLKVSPLVHQYYWIGFD | 0.306 ± 0.8
DCLNYFTTLIKLVSLVCWNG | -0.571 ± 0.79
DCLYRLSIKSSKAMVSHECR | -0.142 ± 0.79
DCTLAVLFYKTEFITPRAQW | 2.28 ± 0.14
DDCCSVNAMHSANCMMVVR | 0.09 ± 1
DDDNRNNLLWAMNADLGLRC | 2.32 ± 0.091
DDDRPDEAYEYDVSGF | -1.03 ± 0.54
DDFGCLYFYILYS | inactive
DDNVLYCYSYVVHESLSAAQ | 0.354 ± 0.3
DDSFML | -0.134 ± 1.1
DEIVSERDIVSSNRLCGSIM | -0.561 ± 1.1
DFCSLATYGKRGFCDMYYYV | 0.343 ± 0.35
DFDSQRSLKSSDRRFVTFTY | -0.869 ± 0.55
DFGRWSTSGSVPCSGATCAV | 2.43 ± 0.2

Substance | amyloid nucleation score
DFILGYVDS | -0.65 ± 1
DFLWTFVGNFLE | -1.43 ± 0.78
DFNIIECSPGRGVHHDDWEP | inactive
DFSTLAPLKLVMHI | -0.267 ± 0.54
DFVRY | -0.484 ± 0.63
DFYVSVPLRNCFSMSFIKWV | -0.766 ± 0.48
DGFVVASISWGSNFLVFFIY | inactive
DGMSRSVRKNCEAGCRRSFG | 4.58 ± 0.048
DGNWL | -0.385 ± 0.76
DGRADFYSCVCLYYSWNGY | 3.62 ± 0.037
DGRIVYEPSKSARFWKVKCL | -0.335 ± 0.79
DGSHYFIVRDPVNSCLSSWV | -0.668 ± 0.36
DGVCKFQELMSFPGKLYS | -0.447 ± 0.5
DGVNAFNR | 0.203 ± 0.2
DHLYMYWGAQ | 1.02 ± 0.37
DHRLYQSFKALRVPSVVLRG | -0.766 ± 0.79
DHRRCDSMRTDC | 0.098 ± 1
DIAKLLCYILCFNGKSRRWG | 0.127 ± 0.55
DIARDLVWGLRSNAGAQLGN | 0.54 ± 0.44
DICNWHLYDNCLSICSGYR | 0.951 ± 0.81
DIGSMYEMLCRVVTIVLPRS | -0.723 ± 1.1
DIIAPEKNFIIYY | inactive
DIIVVQCIVSVMCTMRASRS | 5.897 ± 0.051
DIRMLERTNLIPYNKQVMGM | 0.163 ± 0.29
DISELDVCFL | -0.287 ± 0.33

Substance | amyloid nucleation score
DITYEYTTWGFLRRQAIRRP | 3.63 ± 0.089
DITYQHDGVIE | -0.789 ± 0.32
DIVIYWV | -0.139 ± 0.63
DIVQIWCWFRGC | 10.25 ± 0.029
DKCDMTSTIVSLLVSTPKWS | -0.142 ± 0.34
DKICNYVVGGEVYFSMNHYW | 8.327 ± 0.047
DKIRTSKAISQIWLLPIYFE | 0.491 ± 0.57
DKPLQWHGCVRKKSTRGRGW | 0.927 ± 0.45
DKREQRLRQSQILMCGDGGF | 0.157 ± 0.76
DKRIGRVCHSLKIVWCTIML | -0.089 ± 0.41
DKRLCLMVCNLLVYYMPF | -0.952 ± 0.63
DLAELISVKYLVTVSLWAGS | 0.621 ± 0.57
DLARPDFKLIYSYGSNSPGS | -1.38 ± 0.64
DLEYF | -1.56 ± 0.54
DLFGCFVNCRSRL | 2.89 ± 0.092
DLGYDLTINWAFERLADRVN | -1.46 ± 1
DLIGPYRVLRFCRWV | 2.8 ± 0.099
DLIYGGYST | inactive
DLRYTMYYDCFCYVFCPSMT | 8.166 ± 0.059
DLSSALRAMRSYSHLSTVGI | inactive
DLVHFLRNRWCGIR | -0.73 ± 0.55
DLVVYLSPVGGTGRFYEVGA | 3.92 ± 0.062
DMHCFSEGRHGGLTCAGCLR | 1.1 ± 0.19
DMMRFYGAPDGQGNTHQNRT | 1.63 ± 0.12
DMRLWCVWSSIACDTSYSTS | 0.26 ± 0.2

Substance | amyloid nucleation score
DMSSHGGWFRPRRFLEISPL | 0.183 ± 1
DMWMRVILSDNGNQEVPK | -0.293 ± 0.27
DNIKTVSRMTWPWLMFTVGG | 0.3 ± 0.55
DNSVHCSFSYFNLPELKGCY | 3.8 ± 0.065
DNTLLALVGM | 1.57 ± 0.58
DNVLYHPDGFGMISALTGVV | -0.753 ± 0.45
DNYLYYYFYSFRLTEALFIC | -0.297 ± 1.1
DNYSRCGICWVSLRVLYVRR | inactive
DPITFEVSCNANVIDPNSLV | -1.22 ± 0.38
DPVTMLYSF | 0.179 ± 0.32
DQALGGEMWWL | -0.14 ± 0.45
DQCELVSGVWLSIRSADLPY | 0.176 ± 0.35
DQFWSENRIDYDNLAIRLQL | -1.1 ± 0.76
DQLVQGYGNTGWQLGYRMAG | 5.35 ± 0.056
DQTWNWNVGIGFYRSYFLMY | inactive
DRARMYYYSEIHSVVTSIIK | inactive
DRFRDVIICFFKCTCNRITQ | 4.949 ± 0.034
DRFRYICSYVENSDYLLRCL | inactive
DRFVLIVHINRGRV | 3.86 ± 0.048
DRGYKSYGG | 0.775 ± 0.74
DRLLRSRLGIRSNRIVCW | -0.539 ± 0.36
DRRLCLCLLIMSC | -0.578 ± 0.79
DRWEPKLI | -0.516 ± 0.23
DRYHDTMAMKARVWSDRCKS | 1.94 ± 0.34
DSCCMSYSRQNCTY | 0.218 ± 0.8

Substance | amyloid nucleation score
DSDLLVTHMVMLYKHVE | 3.79 ± 0.065
DSFVIAVLQIIPYTLTQHSK | 1.7 ± 0.085
DSGEPWILMFLDGYLSAMRL | -0.513 ± 0.61
DSGFFWCV | inactive
DSLINFRLKVPTMLCMFCWI | 0.401 ± 0.62
DSRIGYTSYQRFTMKSNVLC | 0.024 ± 0.44
DSSGFCMMVYYIQ | -0.365 ± 0.76
DSSIDRWF | 1.15 ± 0.22
DSSRAVLGVIRYSSEGSL | -0.34 ± 0.41
DSVCYNFNFNTF | 5.711 ± 0.027
DSVIWVCIVWRRSSSTMCVM | 1.01 ± 0.38
DSWSIMWSLC | -0.272 ± 1.1
DTKTIRFLYKRYRLSWQVSE | 4.587 ± 0.04
DTLFNCFSCIVKLMSYIKSL | inactive
DTMDSAAFTLHCIVWGYPVG | inactive
DTRLIGECQLGSGVTVLSLG | 0.252 ± 0.27
DTSAIFSYALLL | 4.56 ± 0.058
DVETL | -1.24 ± 0.41
DVFGRGLMKEMGFVNFTLYY | inactive
DVHFCNNLLLKRRRGSVVA | -0.153 ± 0.41
DVKKYLRGYCIRPCLLSYLI | -0.807 ± 0.79

From the supplement of paper PMC12042874
